Target: T1, IpaH7.8 wild-type (recombinant) (Shigella flexneri, UniProt P18014 2-565)
T1 sequence: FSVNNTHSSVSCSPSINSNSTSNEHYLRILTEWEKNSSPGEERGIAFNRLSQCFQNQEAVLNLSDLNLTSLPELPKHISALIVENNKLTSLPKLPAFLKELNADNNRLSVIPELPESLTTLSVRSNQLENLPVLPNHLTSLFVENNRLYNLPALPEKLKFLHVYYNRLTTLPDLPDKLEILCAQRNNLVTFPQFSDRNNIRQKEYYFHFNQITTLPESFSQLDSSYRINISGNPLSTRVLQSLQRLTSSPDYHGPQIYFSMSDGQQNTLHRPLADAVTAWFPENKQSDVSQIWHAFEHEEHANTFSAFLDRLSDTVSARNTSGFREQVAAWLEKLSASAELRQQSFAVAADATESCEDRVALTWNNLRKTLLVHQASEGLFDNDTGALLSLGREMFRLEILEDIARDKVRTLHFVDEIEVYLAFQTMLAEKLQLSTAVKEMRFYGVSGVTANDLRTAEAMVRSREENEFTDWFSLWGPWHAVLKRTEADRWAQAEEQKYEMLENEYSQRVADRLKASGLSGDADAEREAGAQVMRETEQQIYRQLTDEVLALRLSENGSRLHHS
Assay: MST

B1: hsGSDMD-1D4 (purified, dye-labelled) (natural protein)
chain: MGSAFERVVRRVVQELDHGGEFIPVTSLQSSTGFQPYCLVVRKPSSSWFWKPRYKCVNLSIKDILEPDAAEPDVQRGRSFHFYDAMDGQIQGSVELAAPGQAKIAGGAAVSDSSSTSMNVYSLSVDPNTWQTLLHERHLRQPEHKVLQQLRSRGDNVYVVTEVLQTQKEVEVTRTHKREGSGRFSLPGATCLQGEGQGHLSQKKTVTIPSGSTLAFRVAQLVIDSDLDVLLFPDKKQRTFQPPATGHKRSTSEGAWPQLPSGLSMMRCLHNFLTDGVPAEGAFTEDFQGLRAEVETISKELELLDRELCQLLLEGLEGVLRDQLALRALEEALEQGQSLGPVEPLDGPAGAVLECLVLSSGMLVPELAIPVVYLLGALTMLSETQHKLLAEALESQTLLGPLELVGSLLEQSAPWQERSTMSLPPGLLGNSWGEGAPAWVLLDECGLELGEDTPHVCWEPQAQGRMCALYASLALLSGLSQEPH
modifications: labelled with the 2nd generation red-maleimide dye (Nanotemper protein labeling kit)
  Kd: 194 nM

Source: article PMC9122893 (Cell host & microbe, 2021)
